Reference: paper PMC10877131 (JHEP Reports, 2024)

Target: the molecule itself
Assay: immunoblot

B1: Thrombospondin-2 (THBS2), overexpressed in LX-2 cells, in conditioned media (natural protein)
chain: not shown
With B1 the “stoichiometry N” value was 2.
